Measurements as given in patent US9266937 (UNIVERSITY OF CENTRAL FLORIDA RESEARCH FOUNDATION, dated 2016).

Target: T1, IL-7R/Fc fusion protein
T1 construct: Loaded on the SPR chip; also called IL-7 receptor
Test: SPR, IL-7R/Fc loaded chip, Scrubber2
Description: Fc fusion protein was determined by surface plasmon resonance (SPR). Association (Ka), Dissociation (Kd) and total binding constant (KD) were calculated using the Scrubber2 program (BioLogic Software).

T1 sequence (P16871 whole entry, the tested form may be a part): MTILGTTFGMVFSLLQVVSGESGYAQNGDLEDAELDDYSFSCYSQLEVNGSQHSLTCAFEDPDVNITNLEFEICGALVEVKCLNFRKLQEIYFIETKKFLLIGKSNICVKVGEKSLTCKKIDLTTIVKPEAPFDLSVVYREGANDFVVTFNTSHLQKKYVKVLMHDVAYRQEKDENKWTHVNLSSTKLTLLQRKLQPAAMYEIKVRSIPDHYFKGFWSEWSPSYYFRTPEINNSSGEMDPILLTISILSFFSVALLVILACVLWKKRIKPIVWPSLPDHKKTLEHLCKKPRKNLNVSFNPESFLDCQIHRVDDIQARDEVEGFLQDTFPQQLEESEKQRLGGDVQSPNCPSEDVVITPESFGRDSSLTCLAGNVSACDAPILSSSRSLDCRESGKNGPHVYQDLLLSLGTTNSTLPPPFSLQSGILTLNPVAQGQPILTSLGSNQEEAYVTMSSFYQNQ

B1: IL-7AT, attenuated IL-7 with Thr97 substituted by Val (ligand)
chain: DCDIEGKDGKQYESVLMVSIDQLLDSMKEIGSNCLNNEFNFFKRHICDANKEGMFLFRAARKLRQFLKMNSVGDFDLHLLKVSEGTTILLNCTGQVKGRKPAALGEAQPTKSLEENKSLKEQKKLNDLCFLKRLLQEIKTCWNKILMGTKEH
notes: also called IL-7 ligand; HMM-IL-7AT
Kd: 100 nM
